For data set [1], the target named is T1, BSA (bovine, UniProt P02769 25-607).
T1 construct: Control on the protein microarray; also called bovine serum albumin
The experiment in a line: protein microarray probed with biotinylated PTTG1, Streptavidin-Alexa Fluor 647. Here is the method: The human Protoarray nc3.0 study was performed as described by the manufacturer (obtained from Invitrogen Corporation; Carlsbad, Calif.). […] Arrays were scanned by GenePix 4000B (obtained from Molecular Devices Corporation; Sunnyvale, Calif.), and images analyzed using ProtoArray Prospector (Invitrogen).

The target in data set [2] is control His-GST protein.
Data set [3] has as its target T2, His-tagged PTTG1.
T2 chain: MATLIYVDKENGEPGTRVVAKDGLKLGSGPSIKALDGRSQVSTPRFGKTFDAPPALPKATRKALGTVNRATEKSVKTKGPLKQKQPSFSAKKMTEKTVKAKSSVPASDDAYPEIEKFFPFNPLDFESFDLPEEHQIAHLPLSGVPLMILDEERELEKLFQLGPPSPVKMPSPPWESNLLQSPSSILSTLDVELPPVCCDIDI

T1 sequence (P02769 25-607 limits assumed): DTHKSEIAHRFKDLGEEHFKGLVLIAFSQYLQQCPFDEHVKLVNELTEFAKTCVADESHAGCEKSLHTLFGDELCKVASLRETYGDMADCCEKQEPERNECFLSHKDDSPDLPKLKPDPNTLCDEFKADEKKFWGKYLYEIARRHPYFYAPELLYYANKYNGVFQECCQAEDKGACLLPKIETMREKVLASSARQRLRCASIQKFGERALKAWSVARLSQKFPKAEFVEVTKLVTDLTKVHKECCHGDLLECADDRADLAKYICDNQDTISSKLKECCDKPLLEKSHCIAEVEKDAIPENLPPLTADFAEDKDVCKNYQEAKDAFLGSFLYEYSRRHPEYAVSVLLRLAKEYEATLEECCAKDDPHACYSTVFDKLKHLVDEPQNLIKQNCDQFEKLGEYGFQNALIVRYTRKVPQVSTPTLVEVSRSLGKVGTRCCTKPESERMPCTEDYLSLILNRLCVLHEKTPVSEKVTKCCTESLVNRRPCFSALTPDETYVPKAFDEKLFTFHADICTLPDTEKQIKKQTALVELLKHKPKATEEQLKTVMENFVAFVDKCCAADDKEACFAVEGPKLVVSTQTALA

B1: pituitary tumor transforming gene 1 (PTTG1) protein (other)
chain: T2 chain
modifications: biotinylated with biotin-XX sulfosuccinimidyl ester (protein array); biotin-lysine labeled during synthesis (as prey in pull-down); endogenous and unlabeled in co-immunoprecipitation
notes: Used as biotinylated probe on the array, as endogenous protein of HCT116 lysates in co-IP, and as in vitro translated prey in the pull-down; also called securin
With B1, the binding result in data set [1] was “no binding”.

B2: GST-Aurora Kinase A (protein)
chain: MDRSKENCISGPVKATAPVGGPKRVLVTQQFPCQNPLPVNSGQAQRVLCPSNSSQRIPLQAQKLVSSHKPVQNQKQKQLQATSVPHPVSRPLNNTQKSKQPLPSAPENNPEEELASKQKNEESKKRQWALEDFEIGRPLGKGKFGNVYLAREKQSKFILALKVLFKAQLEKAGVEHQLRREVEIQSHLRHPNILRLYGYFHDATRVYLILEYAPLGTVYRELQKLSKFDEQRTATYITELANALSYCHSKRVIHRDIKPENLLLGSAGELKIADFGWSVHAPSSRRTTLCGTLDYLPPEMIEGRMHDEKVDLWSLGVLCYEFLVGKPPFEANTYQETYKRISRVEFTFPDFVTEGARDLISRLLKHNPSQRPMLREVLEHPWITANSSKPSNCQNKESASKQS
For B2, the entries for the “Aurora Kinase A phosphorylation of histone H3 (Ser10), in vitro kinase assay, Western blot” value in data set [2] and in data set [3] were “GST-His has no effect at the same concentration” and “Addition of PTTG1 dose-dependently inhibited Aurora Kinase A histone H3 phosphorylation”, respectively.

For the origin of these results see patent publication US20110009473A1 (CEDARS SINAI MEDICAL CENTER, published 2011).
